Measurements: the supplement of paper PMC5998384

Legend:
HeLa Kyoto [1] = experiment: solubility in G1/S (NP-40 vs SDS abundance) (log2 ratio); higher = more soluble; settings: cell cycle stage: G1/S
HeLa Kyoto [2] = experiment: solubility change mitosis vs G1/S (difference of NP-40 vs SDS log2 ratios) (log2 ratio difference); higher = more soluble in mitosis
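For solubility change mitosis vs G1/S (difference of NP-40 vs SDS log2 ratios) in this document: synchronized HeLa Kyoto cells (double thymidine block for G1/S, nocodazole release for mitosis), protein amounts in NP-40 versus SDS lysates quantified by mass spectrometry, three biological replicates.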
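For solubility in G1/S (NP-40 vs SDS abundance) in this document: HeLa Kyoto cells arrested at G1/S by double thymidine block, proteins quantified by TMT10plex mass spectrometry in mild NP-40 versus SDS extracts, three biological replicates.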

Sequence	solubility in G1/S (log2) (HeLa Kyoto [1])	solubility change mitosis (log2) (HeLa Kyoto [2])
MEKYHVLEMIGEGSFGRVYKGRRKYSAQVVALKFIPKLGRSEKELRNLQREIEIMRGLRHPNIVHMLDSFETDKEVVVVTDYAEGELFQILEDDGKLPEDQVQAIAAQLVSALYYLHSHRILHRDMKPQNILLAKGGGIKLCDFGFARAMSTNTMVLTSIKGTPLYMSPELVEERPYDHTADLWSVGCILYELAVGTPPFYATSIFQLVSLILKDPVRWPSTISPCFKNFLQGLLTKDPRQRLSWPDLLYHPFIAGHVTIITEPAGPDLGTPFTSRLPPELQVLKDEQAHRLAPKGNQSRILTQAYKRMAEEAMQKKHQNTGPALEQEDKTSKVAPGTAPLPRLGATPQESSLLAGILASELKSSWAKSGTGEVPSAPRENRTTPDCERAFPEERPEVLGQRSTDVVDLENEEPDSDNEWQHLLETTEPVPIQLKAPLTLLCNPDFCQRIQSQLHEAGGQILKGILEGASHILPAFRVLSSLLSSCSDSVALYSFCREAGLPGLLLSLLRHSQESNSLQQQSWYGTFLQDLMAVIQAYFACTFNLERSQTSDSLQVFQEAANLFLDLLGKLLAQPDDSEQTLRRDSLMCFTVLCEAMDGNSRAISKAFYSSLLTTQQVVLDGLLHGLTVPQLPVHTPQGAPQVSQPLREQSEDIPGAISSALAAICTAPVGLPDCWDAKEQVCWHLANQLTEDSSQLRPSLISGLQHPILCLHLLKVLYSCCLVSEGLCRLLGQEPLALESLFMLIQGKVKVVDWEESTEVTLYFLSLLVFRLQNLPCGMEKLGSDVATLFTHSHVVSLVSAAACLLGQLGQQGVTFDLQPMEWMAAATHALSAPAEVRLTPPGSCGFYDGLLILLLQLLTEQGKASLIRDMSSSEMWTVLWHRFSMVLRLPEEASAQEGELSLSSPPSPEPDWTLISPQGMAALLSLAMATFTQEPQLCLSCLSQHGSILMSILKHLLCPSFLNQLRQAPHGSEFLPVVVLSVCQLLCFPFALDMDADLLIGVLADLRDSEVAAHLLQVCCYHLPLMQVELPISLLTRLALMDPTSLNQFVNTVSASPRTIVSFLSVALLSDQPLLTSDLLSLLAHTARVLSPSHLSFIQELLAGSDESYRPLRSLLGHPENSVRAHTYRLLGHLLQHSMALRGALQSQSGLLSLLLLGLGDKDPVVRCSASFAVGNAAYQAGPLGPALAAAVPSMTQLLGDPQAGIRRNVASALGNLGPEGLGEELLQCEVPQRLLEMACGDPQPNVKEAALIALRSLQQEPGIHQVLVSLGASEKLSLLSLGNQSLPHSSPRPASAKHCRKLIHLLRPAHSM [STK36]	-0.178	0.092
MEKYVRLQKIGEGSFGKAILVKSTEDGRQYVIKEINISRMSSKEREESRREVAVLANMKHPNIVQYRESFEENGSLYIVMDYCEGGDLFKRINAQKGVLFQEDQILDWFVQICLALKHVHDRKILHRDIKSQNIFLTKDGTVQLGDFGIARVLNSTVELARTCIGTPYYLSPEICENKPYNNKSDIWALGCVLYELCTLKHAFEAGSMKNLVLKIISGSFPPVSLHYSYDLRSLVSQLFKRNPRDRPSVNSILEKGFIAKRIEKFLSPQLIAEEFCLKTFSKFGSQPIPAKRPASGQNSISVMPAQKITKPAAKYGIPLAYKKYGDKKLHEKKPLQKHKQAHQTPEKRVNTGEERRKISEEAARKRRLEFIEKEKKQKDQIISLMKAEQMKRQEKERLERINRAREQGWRNVLSAGGSGEVKAPFLGSGGTIAPSSFSSRGQYEHYHAIFDQMQQQRAEDNEAKWKREIYGRGLPERGILPGVRPGFPYGAAGHHHFPDADDIRKTLKRLKAVSKQANANRQKGQLAVERAKQVEEFLQRKREAMQNKARAEGHMVYLARLRQIRLQNFNERQQIKAKLRGEKKEANHSEGQEGSEEADMRRKKIESLKAHANARAAVLKEQLERKRKEAYEREKKVWEEHLVAKGVKSSDVSPPLGQHETGGSPSKQQMRSVISVTSALKEVGVDSSLTDTRETSEEMQKTNNAISSKREILRRLNENLKAQEDEKGKQNLSDTFEINVHEDAKEHEKEKSVSSDRKKWEAGGQLVIPLDELTLDTSFSTTERHTVGEVIKLGPNGSPRRAWGKSPTDSVLKILGEAELQLQTELLENTTIRSEISPEGEKYKPLITGEKKVQCISHEINPSAIVDSPVETKSPEFSEASPQMSLKLEGNLEEPDDLETEILQEPSGTNKDESLPCTITDVWISEEKETKETQSADRITIQENEVSEDGVSSTVDQLSDIHIEPGTNDSQHSKCDVDKSVQPEPFFHKVVHSEHLNLVPQVQSVQCSPEESFAFRSHSHLPPKNKNKNSLLIGLSTGLFDANNPKMLRTCSLPDLSKLFRTLMDVPTVGDVRQDNLEIDEIEDENIKEGPSDSEDIVFEETDTDLQELQASMEQLLREQPGEEYSEEEESVLKNSDVEPTANGTDVADEDDNPSSESALNEEWHSDNSDGEIASECECDSVFNHLEELRLHLEQEMGFEKFFEVYEKIKAIHEDEDENIEICSKIVQNILGNEHQHLYAKILHLVMADGAYQEDNDE [NEK1]	-0.156	-0.0529
MELAQEARELGCWAVEEMGVPVAARAPESTLRRLCLGQGADIWAYILQHVHSQRTVKKIRGNLLWYGHQDSPQVRRKLELEAAVTRLRAEIQELDQSLELMERDTEAQDTAMEQARQHTQDTQRRALLLRAQAGAMRRQQHTLRDPMQRLQNQLRRLQDMERKAKVDVTFGSLTSAALGLEPVVLRDVRTACTLRAQFLQNLLLPQAKRGSLPTPHDDHFGTSYQQWLSSVETLLTNHPPGHVLAALEHLAAEREAEIRSLCSGDGLGDTEISRPQAPDQSDSSQTLPSMVHLIQEGWRTVGVLVSQRSTLLKERQVLTQRLQGLVEEVERRVLGSSERQVLILGLRRCCLWTELKALHDQSQELQDAAGHRQLLLRELQAKQQRILHWRQLVEETQEQVRLLIKGNSASKTRLCRSPGEVLALVQRKVVPTFEAVAPQSRELLRCLEEEVRHLPHILLGTLLRHRPGELKPLPTVLPSIHQLHPASPRGSSFIALSHKLGLPPGKASELLLPAAASLRQDLLLLQDQRSLWCWDLLHMKTSLPPGLPTQELLQIQASQEKQQKENLGQALKRLEKLLKQALERIPELQGIVGDWWEQPGQAALSEELCQGLSLPQWRLRWVQAQGALQKLCS [HAUS5]	0.307	-0.0591
MELENIVANTVLLKAREGGGGNRKGKSKKWRQMLQFPHISQCEELRLSLERDYHSLCERQPIGRLLFREFCATRPELSRCVAFLDGVAEYEVTPDDKRKACGRQLTQNFLSHTGPDLIPEVPRQLVTNCTQRLEQGPCKDLFQELTRLTHEYLSVAPFADYLDSIYFNRFLQWKWLERQPVTKNTFRQYRVLGKGGFGEVCACQVRATGKMYACKKLEKKRIKKRKGEAMALNEKQILEKVNSRFVVSLAYAYETKDALCLVLTLMNGGDLKFHIYHMGQAGFPEARAVFYAAEICCGLEDLHRERIVYRDLKPENILLDDHGHIRISDLGLAVHVPEGQTIKGRVGTVGYMAPEVVKNERYTFSPDWWALGCLLYEMIAGQSPFQQRKKKIKREEVERLVKEVPEEYSERFSPQARSLCSQLLCKDPAERLGCRGGSAREVKEHPLFKKLNFKRLGAGMLEPPFKPDPQAIYCKDVLDIEQFSTVKGVELEPTDQDFYQKFATGSVPIPWQNEMVETECFQELNVFGLDGSVPPDLDWKGQPPAPPKKGLLQRLFSRQDCCGNCSDSEEELPTRL [GRK6]	-0.123	-0.198
MELPAVGEHVFAVESIEKKRIRKGRVEYLVKWRGWSPKYNTWEPEENILDPRLLIAFQNRERQEQLMGYRKRGPKPKPLVVQVPTFARRSNVLTGLQDSSTDNRAKLDLGAQGKGQGHQYELNSKKHHQYQPHSKERAGKPPPPGKSGKYYYQLNSKKHHPYQPDPKMYDLQYQGGHKEAPSPTCPDLGAKSHPPDKWAQGAGAKGYLGAVKPLAGAAGAPGKGSEKGPPNGMMPAPKEAVTGNGIGGKMKIVKNKNKNGRIVIVMSKYMENGMQAVKIKSGEVAEGEARSPSHKKRAADERHPPADRTFKKAAGAEEKKVEAPPKRREEEVSGVSDPQPQDAGSRKLSPTKEAFGEQPLQLTTKPDLLAWDPARNTHPPSHHPHPHPHHHHHHHHHHHHAVGLNLSHVRKRCLSETHGEREPCKKRLTARSISTPTCLGGSPAAERPADLPPAAALPQPEVILLDSDLDEPIDLRCVKTRSEAGEPPSSLQVKPETPASAAVAVAAAAAPTTTAEKPPAEAQDEPAESLSEFKPFFGNIIITDVTANCLTVTFKEYVTV [CBX4]	-0.386	0.583
MENLMTSSTLPPLFADEDGSKESNDLATTGLNHPEVPYSSGATSSTNNPEFVEDLSQGQLLQSESSNAAEGNEQRHEDEQRSKRGGWSKGRKRKKPLRDSNAPKSPLTGYVRFMNERREQLRAKRPEVPFPEITRMLGNEWSKLPPEEKQRYLDEADRDKERYMKELEQYQKTEAYKVFSRKTQDRQKGKSHRQDAARQATHDHEKETEVKERSVFDIPIFTEEFLNHSKAREAELRQLRKSNMEFEERNAALQKHVESMRTAVEKLEVDVIQERSRNTVLQQHLETLRQVLTSSFASMPLPGSGETPTVDTIDSYMNRLHSIILANPQDNENFIATVREVVNRLDR [HMG20A]	-0.0378	0.298
MENLPAVTTEEPTPMGRGPVGPSGGGSTRDQVRTVVMRPSVSWEKAGPEEAKAPVRGDEAPPARVAGPAAGTPPCQMGVYPTDLTLQLLAVRRKSRLRDPGLQQTLRGQLRLLENDSREMARVLGELSARLLSIHSDQDRIVVTFKTFEEIWKFSTYHALGFTHHCLANLLMDQAFWLLLPSEEEETAIQVHVDENALRLTHESLLIQEGPFFVLCPDHHVRVMTGPRDAGNGPQALRQASGAPQGEAAPETDSSPPSPSVSSEEVAVAAAPEPLIPFHQWALRIPQDPIDDAMGGPVMPGNPLMAVGLASALADFQGSGPEEMTFRGGDLIEILGAQVPSLPWCVGRHAASGRVGFVRSSLISMQGPVSELESAIFLNEEEKSFFSEGCFSEEDARQLLRRMSGTDVCSVYSLDSVEEAETEQPQEKEIPPPCLSLEPQETLQKVKNVLEQCKTCPGCPQEPASWGLCAASSDVSLQDPEEPSFCLEAEDDWEDPEALSSLLLFLNAPGYKASFRGLYDVALPWLSSVFRSFSDEEELTGRLAQARGAAKKAGLLMALARLCFLLGRLCSRRLKLSQARVYFEEALGALEGSFGDLFLVVAVYANLASIYRKQKNREKCAQVVPKAMALLLGTPDHICSTEAEGELLQLALRRAVGGQSLQAEARACFLLARHHVHLKQPEEALPFLERLLLLHRDSGAPEAAWLSDCYLLLADIYSRKCLPHLVLSCVKVASLRTRGSLAGSLRSVNLVLQNAPQPHSLPAQTSHYLRQALASLTPGTGQALRGPLYTSLAQLYSHHGCHGPAITFMTQAVEASAIAGVRAIVDHLVALAWLHVLHGQSPVALDILQSVRDAVVASEDQEGVIANMVAVALKRTGRTRQAAESYYRALRVARDLGQQRNQAVGLANFGALCLHAGASRLAQHYLLEAVRLFSRLPLGECGRDFTHVLLQLGHLCTRQGPAQQGKGYYEWALLVAVEMGHVESQLRAVQRLCHFYSAVMPSEAQCVIYHELQLSLACKVADKVLEGQLLETISQLYLSLGTERAYKSALDYTKRSLGIFIDLQKKEKEAHAWLQAGKIYYILRQSELVDLYIQVAQNVALYTGDPNLGLELFEAAGDIFFDGAWEREKAVSFYRDRALPLAVTTGNRKAELRLCNKLVALLATLEEPQEGLEFAHMALALSITLGDRLNERVAYHRLAALQHRLGHGELAEHFYLKALSLCNSPLEFDEETLYYVKVYLVLGDIIFYDLKDPFDAAGYYQLALAAAVDLGNKKAQLKIYTRLATIYHNFLLDREKSLFFYQKARTFATELNVRRVNLPPLPLCGWAPWLAPSHPR [SH3TC1]	-0.47	0.0532
